The target of this experiment is T1, CAPRIN-1 protein (Homo sapiens, UniProt Q14444).
T1 construct: made in house
T1 sequence (Q14444 1-709): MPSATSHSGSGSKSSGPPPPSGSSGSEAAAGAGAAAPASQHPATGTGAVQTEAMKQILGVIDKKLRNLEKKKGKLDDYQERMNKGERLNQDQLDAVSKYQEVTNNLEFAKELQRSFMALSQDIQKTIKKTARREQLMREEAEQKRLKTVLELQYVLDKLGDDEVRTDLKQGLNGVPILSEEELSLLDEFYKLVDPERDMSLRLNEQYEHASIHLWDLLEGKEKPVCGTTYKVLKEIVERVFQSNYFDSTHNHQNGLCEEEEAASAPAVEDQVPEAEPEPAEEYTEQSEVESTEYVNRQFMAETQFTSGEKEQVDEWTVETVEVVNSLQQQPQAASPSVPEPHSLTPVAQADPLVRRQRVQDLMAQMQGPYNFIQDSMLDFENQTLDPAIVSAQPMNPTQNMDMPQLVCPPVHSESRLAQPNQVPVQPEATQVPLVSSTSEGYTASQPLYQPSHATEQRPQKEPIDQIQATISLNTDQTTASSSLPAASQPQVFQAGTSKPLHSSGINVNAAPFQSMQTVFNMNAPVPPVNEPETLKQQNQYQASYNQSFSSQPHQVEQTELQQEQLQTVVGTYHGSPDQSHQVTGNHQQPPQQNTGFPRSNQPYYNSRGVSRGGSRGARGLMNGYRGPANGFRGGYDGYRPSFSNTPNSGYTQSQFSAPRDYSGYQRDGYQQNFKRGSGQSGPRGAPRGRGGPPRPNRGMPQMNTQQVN
The experiment is described as follows: ELISA using CAPRIN-1 protein immobilized on a plate. In kind it is binding. The procedure: One hundred (100) μg of a human CAPRIN-1 recombinant protein produced according to Example 3 of WO2010/016526 was mixed with a MPL+TDM adjuvant (Sigma) in an amount equivalent to that of the recombinant protein. The mixture was used as an antigen solution per mouse. The antigen solution was administered intraperitoneally to 6-week-old Balb/c mice (Japan SLC Inc.) and then further administered 3 times […] every week for completion of immunization. A spleen was removed on day 3 after the final immunization and then ground between two sterilized glass slides. Spleen cells were obtained by washing with PBS (−) (Nissui Pharmatheutical), centrifuging at 1500 rpm for 10 minutes, and removing supernatant, therein these were repeated 3 times. The obtained spleen cells were mixed with mouse myeloma cell SP2/0 (purchased from ATCC) at a ratio of 10:1. The PEG solution prepared by mixing 200 μl of RPMI1640 medium containing 10% FBS heated at 37° C. and 800 μl of PEG1500 (Boehringer) was added to the cells. The solution was incubated for 5 minutes for cell fusion. Centrifugation was performed at 1700 rpm for 5 minutes to remove supernatants. […] Absorbance at 450 nm and absorbance at 595 nm were measured using an absorption spectrometer. As a result, a plurality of hybridomas producing antibodies with high absorbances were selected. […]
Background: ELISA stands for enzyme-linked immunosorbent assay.

The values below come from US12685772B2, “Methods for treating CAPRIN-1 expressing cancers” (TORAY INDUSTRIES, INC., priority 2020, dated 2026).

B1: monoclonal antibody against CAPRIN-1 described in WO2013/125630: mouse monoclonal antibody with heavy-chain variable region SEQ ID NO: 114 and light-chain variable region SEQ ID NO: 115 (antibody, listed as Mus musculus, V domains shown)
VH: GPELVKPGASVKMSCKASGYTFTSYVMHWVKQKPGQGLEWIGYINPYNDGTKYNEKFKGKATLTSDKSSSTAYMELSSLTSEDSAVYYCARRYYYGSSGGYFDVWAQDHVRT
VL: DVQITQSPSYLAASPGETITINCRASKSISKYLAWYQEKPGKTNKLLIYSGSTLQSGIPSRFSGSGSGTDFTLTISSLEPEDFAMYYCQQHNEYPYTFGGGTKLEIKR
For the molecule B1, the “specific reactivity to CAPRIN-1 protein” value is listed as “exhibiting reactivity”.
